According to US20190077860A1 (EISAI R AND D MANAGEMENT, published 2019):
Residue numbers refer to the chain shown, from its start. One block for each binder: values may come before it.

Columns and labels:
[1] = target: T1, human EphA10 extracellular region-SEAP-His protein (human, UniProt Q5JZY3 34-565); assay: ELISA
T1 construct: extracellular domain; also called hEphA10-SEAP-His
T1 sequence (looked up): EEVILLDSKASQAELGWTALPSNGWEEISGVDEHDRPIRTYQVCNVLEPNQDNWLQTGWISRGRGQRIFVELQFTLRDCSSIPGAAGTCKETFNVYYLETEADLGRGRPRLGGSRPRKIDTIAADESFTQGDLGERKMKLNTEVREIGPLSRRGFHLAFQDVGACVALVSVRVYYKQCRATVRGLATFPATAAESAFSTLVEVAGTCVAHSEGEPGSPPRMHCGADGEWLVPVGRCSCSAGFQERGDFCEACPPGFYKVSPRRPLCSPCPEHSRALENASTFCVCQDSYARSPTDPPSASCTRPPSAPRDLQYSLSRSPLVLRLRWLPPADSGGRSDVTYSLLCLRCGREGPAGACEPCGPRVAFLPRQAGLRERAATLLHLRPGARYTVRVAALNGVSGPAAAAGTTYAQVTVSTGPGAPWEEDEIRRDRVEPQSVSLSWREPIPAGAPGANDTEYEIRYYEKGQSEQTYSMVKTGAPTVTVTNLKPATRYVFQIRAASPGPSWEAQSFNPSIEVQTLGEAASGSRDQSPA

SEAP-His = SEAP-His (UniProt P05187 23-511); assay: ELISA
[2] = target: T2, human EphA4 extracellular region-SEAP-His protein (human, UniProt P54764 20-547); assay: SPR, Ab captured
T2 construct: also called hEphA4-SEAP-His
In short: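 Antibodies captured (~30–60 RU) on a protein A chip, or for antibody A on immobilized rat anti-mouse IgG1, in HBS-EP. Human EphA4 extracellular region-SEAP-His at 0.6–50 nM injected in ascending order without regeneration, with 120 s association and 900 s dissociation. KD=kd/ka from 1:1 binding model fits.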

[3] = target: T2, human EphA4 extracellular …; assay: competition ELISA, competitor human Ephrin A5-Fc
In short: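 Anti-alkaline phosphatase-coated plates captured EphA4-SEAP-His (10 nM final), then antibody (0–3000 nM serial dilutions) and biotinylated Ephrin A5-Fc (0.7 nM final) were co-added for 1 h at room temperature. Bound ligand detected with HRP-streptavidin and TMBZ, stopped with 1N H₂SO₄, A450 read.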

Sequence of SEAP-His (P05187 23-511): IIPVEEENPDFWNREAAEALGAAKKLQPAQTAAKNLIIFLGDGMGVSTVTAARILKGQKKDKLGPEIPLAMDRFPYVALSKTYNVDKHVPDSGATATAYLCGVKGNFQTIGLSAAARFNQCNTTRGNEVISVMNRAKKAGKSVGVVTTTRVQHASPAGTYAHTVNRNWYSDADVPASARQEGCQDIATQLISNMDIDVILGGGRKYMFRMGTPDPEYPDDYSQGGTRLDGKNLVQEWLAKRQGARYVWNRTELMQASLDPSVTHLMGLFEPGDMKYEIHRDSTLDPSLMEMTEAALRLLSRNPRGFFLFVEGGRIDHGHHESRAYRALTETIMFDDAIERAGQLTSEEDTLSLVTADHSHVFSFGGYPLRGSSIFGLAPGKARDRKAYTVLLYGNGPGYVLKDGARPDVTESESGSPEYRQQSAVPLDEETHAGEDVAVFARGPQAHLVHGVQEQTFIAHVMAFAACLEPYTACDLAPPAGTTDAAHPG
T2 sequence (P54764 20-547): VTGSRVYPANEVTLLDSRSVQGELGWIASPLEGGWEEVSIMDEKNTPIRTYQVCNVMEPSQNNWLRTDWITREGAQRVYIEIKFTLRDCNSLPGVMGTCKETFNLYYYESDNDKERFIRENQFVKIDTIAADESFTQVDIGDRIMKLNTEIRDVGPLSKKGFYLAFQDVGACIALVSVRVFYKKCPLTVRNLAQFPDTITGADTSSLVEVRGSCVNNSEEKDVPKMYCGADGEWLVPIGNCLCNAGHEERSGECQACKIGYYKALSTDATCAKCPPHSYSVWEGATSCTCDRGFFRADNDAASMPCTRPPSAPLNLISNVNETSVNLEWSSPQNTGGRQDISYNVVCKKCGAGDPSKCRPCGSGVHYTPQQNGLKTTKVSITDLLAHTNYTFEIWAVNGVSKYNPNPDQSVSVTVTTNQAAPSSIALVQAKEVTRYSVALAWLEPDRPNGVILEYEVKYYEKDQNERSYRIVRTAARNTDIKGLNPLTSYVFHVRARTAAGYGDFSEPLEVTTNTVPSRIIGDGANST

A450 as % of hEphA4-SEAP-His [1]: 5.6%
A450 as % of hEphA4-SEAP-His (SEAP-His): 5.8%
Kd [2]: 0.93 nM
koff [2]: 0.00027 s⁻¹
kon [2]: 290000 M⁻¹ s⁻¹
IC50 [3]: 2.4 nM
B1: humanized antibody No. 73 (antibody, human IgG1, kappa)
heavy: QIQLVQSGSELKKPGASVKVSCKASGYTFTDYSMHWVRQAPGQGLKWMGWINTETGEPTYADDFKGRFVFSLDTSVSTAYLQISSLKAEDTAVYYCARIPLYYYGSRYWYFDVWGQGTTVTVSSASTKGPSVFPLAPSSKSTSGGTAALGCLVKDYFPEPVTVSWNSGALTSGVHTFPAVLQSSGLYSLSSVVTVPSSSLGTQTYICNVNHKPSNTKVDKRVEPKSCDKTHTCPPCPAPPAAAPSVFLFPPKPKDTLMISRTPEVTCVVVDVSHEDPEVQFNWYVDGVEVHNAKTKPREEQFNSTFRVVSVLTVVHQDWLNGKEYKCKVSNKGLPAPIEKTISKTKGQPREPQVYTLPPSREEMTKNQVSLTCLVKGFYPSDIAVEWESNGQPENNYKTTPPMLDSDGSFFLYSKLTVDKSRWQQGNVFSCSVMHEALHNHYTQKSLSLSPG
light: EIVMTQSPATLSVSPGERATLSCRASENIYRNLAWYQQKPGQSPRLLIYAATNLADGIPARFSGSGSGTEYTLTISSLQSEDFAVYYCQHFWGTPWTFGQGTKVEIKRTVAAPSVFIFPPSDEQLKSGTASVVCLLNNFYPREAKVQWKVDNALQSGNSQESVTEQDSKDSTYSLSSTLTLSKADYEKHKVYACEVTHQGLSSPVTKSFNRGEC
notes: human Ig kappa; also called L2-4/HK4

A450 as % of hEphA4-SEAP-His [1]: 5.3%
A450 as % of hEphA4-SEAP-His (SEAP-His): 5.5%
Kd [2]: 1.1 nM
koff [2]: 0.00031 s⁻¹
kon [2]: 270000 M⁻¹ s⁻¹
IC50 [3]: 3.7 nM
B2: humanized antibody No. 96 (antibody, human IgG1, kappa)
heavy: B1 heavy with I2V
light: B1 light
notes: human Ig kappa; also called L2-4/HK2

A450 as % of hEphA4-SEAP-His [1]: 4.9%
A450 as % of hEphA4-SEAP-His (SEAP-His): 5%
Kd [2]: 0.77 nM
koff [2]: 0.00024 s⁻¹
kon [2]: 310000 M⁻¹ s⁻¹
IC50 [3]: 2.5 nM
B3: humanized antibody No. 93 (antibody, human IgG1, kappa)
heavy: B1 heavy with I2V, K46E, D62Q, D63G, K65T
light: B1 light
notes: human Ig kappa; also called L2-4/HA1

A450 as % of hEphA4-SEAP-His [1]: 4.5%
A450 as % of hEphA4-SEAP-His (SEAP-His): 4.4%
Kd [2]: 1 nM
koff [2]: 0.00031 s⁻¹
kon [2]: 300000 M⁻¹ s⁻¹
IC50 [3]: 3.1 nM
B4: humanized antibody No. 95 (antibody, human IgG1, kappa)
heavy: B1 heavy with I2V, K46E
light: B1 light
notes: human Ig kappa; also called L2-4/HK1
